From PMC2688079

Target: Aqy1 from Pichia pastoris (Pichia pastoris)
Assay: crystal structure; hanging drop vapour diffusion at 4°C, protein at 9 mg/ml in beta-octylglucopyranoside; Crystal1: 28% PEG400, 100 mM Na-citrate pH 3.5, 200 mM Li2SO4 (1.15 Å); Crystal2: 33% PEG400, 100 mM Tris pH 8.0, 100 mM NaCl, 100 mM CdCl2 (1.40 Å); both space group I4, identical structures

stoichiometry N: 4
Substance: Aqy1 from Pichia pastoris (natural protein)
